From patent publication US20090042248

T1: Human C2, P06681
T1 chain: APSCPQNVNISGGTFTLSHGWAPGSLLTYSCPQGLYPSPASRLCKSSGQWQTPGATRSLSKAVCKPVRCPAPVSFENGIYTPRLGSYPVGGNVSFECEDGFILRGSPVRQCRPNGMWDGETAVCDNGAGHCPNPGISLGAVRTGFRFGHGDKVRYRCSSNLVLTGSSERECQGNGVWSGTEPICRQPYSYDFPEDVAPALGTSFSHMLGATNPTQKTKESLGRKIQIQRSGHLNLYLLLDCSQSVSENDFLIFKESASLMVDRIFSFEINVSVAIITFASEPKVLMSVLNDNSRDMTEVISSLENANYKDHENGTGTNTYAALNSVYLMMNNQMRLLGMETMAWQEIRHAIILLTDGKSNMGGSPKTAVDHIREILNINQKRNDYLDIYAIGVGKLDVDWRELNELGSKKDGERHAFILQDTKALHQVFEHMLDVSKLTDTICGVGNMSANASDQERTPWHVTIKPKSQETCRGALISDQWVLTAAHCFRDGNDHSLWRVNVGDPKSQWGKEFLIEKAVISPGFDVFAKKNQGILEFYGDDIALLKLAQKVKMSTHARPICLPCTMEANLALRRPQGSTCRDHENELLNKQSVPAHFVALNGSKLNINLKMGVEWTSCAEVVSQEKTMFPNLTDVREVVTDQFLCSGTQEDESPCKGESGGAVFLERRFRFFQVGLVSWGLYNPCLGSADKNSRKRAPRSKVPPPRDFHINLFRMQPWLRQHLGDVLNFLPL

T2: P1 Arg oligopeptide of the competing oligopeptide substrate library
T2 chain: HAAPRSANIQIAI

T3: P1 Lys oligopeptide of the competing oligopeptide substrate library
T3 chain: HAAPKSANIQIAI

T4: alpha-2-macroglobulin, P01023
T4 chain: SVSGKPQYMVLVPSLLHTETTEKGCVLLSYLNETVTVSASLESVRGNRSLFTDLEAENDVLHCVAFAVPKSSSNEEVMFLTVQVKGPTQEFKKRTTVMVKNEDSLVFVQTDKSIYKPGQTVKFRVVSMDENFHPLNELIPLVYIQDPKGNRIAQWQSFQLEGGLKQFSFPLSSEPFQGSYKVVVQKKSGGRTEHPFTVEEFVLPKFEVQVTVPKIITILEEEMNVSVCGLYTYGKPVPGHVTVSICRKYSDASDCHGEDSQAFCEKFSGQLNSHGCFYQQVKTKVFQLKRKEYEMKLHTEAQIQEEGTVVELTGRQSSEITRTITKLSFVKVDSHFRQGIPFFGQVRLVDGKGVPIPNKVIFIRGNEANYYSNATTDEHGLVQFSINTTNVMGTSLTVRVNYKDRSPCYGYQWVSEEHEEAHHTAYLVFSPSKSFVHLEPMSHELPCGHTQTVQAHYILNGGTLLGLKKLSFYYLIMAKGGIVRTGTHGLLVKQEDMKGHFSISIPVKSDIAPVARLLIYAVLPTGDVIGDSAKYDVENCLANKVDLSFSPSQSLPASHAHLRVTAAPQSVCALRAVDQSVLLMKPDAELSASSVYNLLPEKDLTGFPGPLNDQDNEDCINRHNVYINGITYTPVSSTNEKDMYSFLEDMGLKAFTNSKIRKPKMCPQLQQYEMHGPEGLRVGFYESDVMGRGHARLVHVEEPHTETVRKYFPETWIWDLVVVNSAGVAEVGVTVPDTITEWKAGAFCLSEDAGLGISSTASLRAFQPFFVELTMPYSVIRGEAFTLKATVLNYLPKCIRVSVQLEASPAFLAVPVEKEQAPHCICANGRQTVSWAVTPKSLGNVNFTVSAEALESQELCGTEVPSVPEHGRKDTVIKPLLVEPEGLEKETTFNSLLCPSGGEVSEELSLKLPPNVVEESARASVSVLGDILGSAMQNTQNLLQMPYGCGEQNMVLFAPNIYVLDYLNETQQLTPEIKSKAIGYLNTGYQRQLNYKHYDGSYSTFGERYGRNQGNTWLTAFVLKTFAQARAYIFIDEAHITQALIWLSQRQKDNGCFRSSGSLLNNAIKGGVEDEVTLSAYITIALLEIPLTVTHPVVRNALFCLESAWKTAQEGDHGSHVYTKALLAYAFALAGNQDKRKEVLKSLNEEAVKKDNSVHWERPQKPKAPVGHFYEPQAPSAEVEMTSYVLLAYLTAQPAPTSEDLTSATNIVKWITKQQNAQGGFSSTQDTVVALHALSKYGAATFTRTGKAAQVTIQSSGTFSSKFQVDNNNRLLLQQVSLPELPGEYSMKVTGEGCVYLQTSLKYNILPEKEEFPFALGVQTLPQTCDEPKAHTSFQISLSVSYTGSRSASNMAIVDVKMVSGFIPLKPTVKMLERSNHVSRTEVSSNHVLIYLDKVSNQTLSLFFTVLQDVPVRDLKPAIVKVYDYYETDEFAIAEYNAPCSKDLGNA

T5: C1-inhibitor, P05155
T5 chain: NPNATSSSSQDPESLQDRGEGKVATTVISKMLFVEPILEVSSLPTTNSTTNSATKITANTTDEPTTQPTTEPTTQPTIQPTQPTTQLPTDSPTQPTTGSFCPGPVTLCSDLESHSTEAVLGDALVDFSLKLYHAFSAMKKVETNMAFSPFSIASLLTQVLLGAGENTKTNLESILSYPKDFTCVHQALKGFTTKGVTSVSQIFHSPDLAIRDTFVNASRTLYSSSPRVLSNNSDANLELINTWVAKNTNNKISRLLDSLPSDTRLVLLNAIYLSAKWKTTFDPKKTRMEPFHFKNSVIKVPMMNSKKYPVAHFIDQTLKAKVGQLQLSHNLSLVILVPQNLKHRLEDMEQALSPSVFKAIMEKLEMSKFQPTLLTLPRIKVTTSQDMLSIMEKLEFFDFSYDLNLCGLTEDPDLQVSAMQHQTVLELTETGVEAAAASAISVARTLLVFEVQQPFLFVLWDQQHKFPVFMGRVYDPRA


Columns and labels:
[1] = target: 'dead' C3(NH3), P01024
[2] = target: 'live' C3 (C3 with an intact thiol ester bond), P01024
[3] = target: T1, Human C2, P06681
[4] = target: Human C4, P0C0L4
[5] = target: T2, P1 Arg oligopeptide of the competing …
[6] = target: T3, P1 Lys oligopeptide of the competing …
[7] = target: T4, alpha-2-macroglobulin, P01023
[8] = target: T5, C1-inhibitor, P05155; assay: SDS-stable complex formation of 125I-labelled MASP fragment with C1-inhibitor, reducing SDS-PAGE, autoradiography and densitometry
[9] = target: T5, C1-inhibitor, P05155; assay: SDS-stable complex formation of 125I-labelled MASP fragments with C1-inhibitor

Chain of Human C4, P0C0L4 (P0C0L4 whole entry, looked up): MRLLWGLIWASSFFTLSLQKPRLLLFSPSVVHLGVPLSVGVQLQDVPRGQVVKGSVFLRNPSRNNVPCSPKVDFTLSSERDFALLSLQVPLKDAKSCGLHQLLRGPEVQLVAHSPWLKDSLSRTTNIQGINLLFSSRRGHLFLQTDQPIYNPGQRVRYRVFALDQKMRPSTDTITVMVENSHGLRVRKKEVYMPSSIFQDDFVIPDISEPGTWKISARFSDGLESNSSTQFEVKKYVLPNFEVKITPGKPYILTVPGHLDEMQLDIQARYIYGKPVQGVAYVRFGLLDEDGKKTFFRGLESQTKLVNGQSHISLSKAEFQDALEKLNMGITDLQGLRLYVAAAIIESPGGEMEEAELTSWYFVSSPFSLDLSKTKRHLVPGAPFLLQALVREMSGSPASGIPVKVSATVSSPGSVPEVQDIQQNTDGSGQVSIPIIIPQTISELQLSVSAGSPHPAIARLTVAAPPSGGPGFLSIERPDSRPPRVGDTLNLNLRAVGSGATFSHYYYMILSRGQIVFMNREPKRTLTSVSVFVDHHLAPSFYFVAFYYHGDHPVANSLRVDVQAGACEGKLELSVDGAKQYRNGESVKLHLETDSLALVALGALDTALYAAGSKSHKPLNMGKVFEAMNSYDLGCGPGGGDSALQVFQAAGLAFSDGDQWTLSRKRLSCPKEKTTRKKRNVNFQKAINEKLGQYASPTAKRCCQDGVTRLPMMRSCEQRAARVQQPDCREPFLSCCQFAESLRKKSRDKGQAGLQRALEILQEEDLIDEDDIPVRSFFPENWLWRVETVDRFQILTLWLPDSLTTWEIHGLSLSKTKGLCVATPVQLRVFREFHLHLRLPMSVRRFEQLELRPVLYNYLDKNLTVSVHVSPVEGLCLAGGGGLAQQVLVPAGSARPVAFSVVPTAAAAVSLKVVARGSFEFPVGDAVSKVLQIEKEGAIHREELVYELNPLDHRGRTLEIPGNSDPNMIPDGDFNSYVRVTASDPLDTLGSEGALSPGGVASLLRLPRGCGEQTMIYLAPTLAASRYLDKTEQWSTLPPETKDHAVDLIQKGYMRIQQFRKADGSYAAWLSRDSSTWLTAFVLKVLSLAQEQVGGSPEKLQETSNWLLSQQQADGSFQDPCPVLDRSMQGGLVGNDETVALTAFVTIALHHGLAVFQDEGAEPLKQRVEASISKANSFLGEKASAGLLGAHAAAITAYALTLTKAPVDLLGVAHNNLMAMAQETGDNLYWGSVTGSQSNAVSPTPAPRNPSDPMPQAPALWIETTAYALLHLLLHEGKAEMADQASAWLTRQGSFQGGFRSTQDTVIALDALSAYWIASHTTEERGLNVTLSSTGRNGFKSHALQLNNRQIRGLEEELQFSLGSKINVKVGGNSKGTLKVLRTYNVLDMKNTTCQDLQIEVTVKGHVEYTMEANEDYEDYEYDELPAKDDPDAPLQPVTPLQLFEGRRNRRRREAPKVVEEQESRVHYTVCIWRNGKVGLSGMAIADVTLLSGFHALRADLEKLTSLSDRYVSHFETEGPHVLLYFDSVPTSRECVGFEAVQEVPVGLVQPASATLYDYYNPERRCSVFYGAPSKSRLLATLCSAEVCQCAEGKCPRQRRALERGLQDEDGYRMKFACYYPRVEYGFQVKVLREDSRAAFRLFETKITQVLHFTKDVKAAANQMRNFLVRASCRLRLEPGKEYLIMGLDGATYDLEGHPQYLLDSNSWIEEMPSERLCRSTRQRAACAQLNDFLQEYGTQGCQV
Chain of 'dead' C3(NH3), P01024 (P01024 whole entry, looked up): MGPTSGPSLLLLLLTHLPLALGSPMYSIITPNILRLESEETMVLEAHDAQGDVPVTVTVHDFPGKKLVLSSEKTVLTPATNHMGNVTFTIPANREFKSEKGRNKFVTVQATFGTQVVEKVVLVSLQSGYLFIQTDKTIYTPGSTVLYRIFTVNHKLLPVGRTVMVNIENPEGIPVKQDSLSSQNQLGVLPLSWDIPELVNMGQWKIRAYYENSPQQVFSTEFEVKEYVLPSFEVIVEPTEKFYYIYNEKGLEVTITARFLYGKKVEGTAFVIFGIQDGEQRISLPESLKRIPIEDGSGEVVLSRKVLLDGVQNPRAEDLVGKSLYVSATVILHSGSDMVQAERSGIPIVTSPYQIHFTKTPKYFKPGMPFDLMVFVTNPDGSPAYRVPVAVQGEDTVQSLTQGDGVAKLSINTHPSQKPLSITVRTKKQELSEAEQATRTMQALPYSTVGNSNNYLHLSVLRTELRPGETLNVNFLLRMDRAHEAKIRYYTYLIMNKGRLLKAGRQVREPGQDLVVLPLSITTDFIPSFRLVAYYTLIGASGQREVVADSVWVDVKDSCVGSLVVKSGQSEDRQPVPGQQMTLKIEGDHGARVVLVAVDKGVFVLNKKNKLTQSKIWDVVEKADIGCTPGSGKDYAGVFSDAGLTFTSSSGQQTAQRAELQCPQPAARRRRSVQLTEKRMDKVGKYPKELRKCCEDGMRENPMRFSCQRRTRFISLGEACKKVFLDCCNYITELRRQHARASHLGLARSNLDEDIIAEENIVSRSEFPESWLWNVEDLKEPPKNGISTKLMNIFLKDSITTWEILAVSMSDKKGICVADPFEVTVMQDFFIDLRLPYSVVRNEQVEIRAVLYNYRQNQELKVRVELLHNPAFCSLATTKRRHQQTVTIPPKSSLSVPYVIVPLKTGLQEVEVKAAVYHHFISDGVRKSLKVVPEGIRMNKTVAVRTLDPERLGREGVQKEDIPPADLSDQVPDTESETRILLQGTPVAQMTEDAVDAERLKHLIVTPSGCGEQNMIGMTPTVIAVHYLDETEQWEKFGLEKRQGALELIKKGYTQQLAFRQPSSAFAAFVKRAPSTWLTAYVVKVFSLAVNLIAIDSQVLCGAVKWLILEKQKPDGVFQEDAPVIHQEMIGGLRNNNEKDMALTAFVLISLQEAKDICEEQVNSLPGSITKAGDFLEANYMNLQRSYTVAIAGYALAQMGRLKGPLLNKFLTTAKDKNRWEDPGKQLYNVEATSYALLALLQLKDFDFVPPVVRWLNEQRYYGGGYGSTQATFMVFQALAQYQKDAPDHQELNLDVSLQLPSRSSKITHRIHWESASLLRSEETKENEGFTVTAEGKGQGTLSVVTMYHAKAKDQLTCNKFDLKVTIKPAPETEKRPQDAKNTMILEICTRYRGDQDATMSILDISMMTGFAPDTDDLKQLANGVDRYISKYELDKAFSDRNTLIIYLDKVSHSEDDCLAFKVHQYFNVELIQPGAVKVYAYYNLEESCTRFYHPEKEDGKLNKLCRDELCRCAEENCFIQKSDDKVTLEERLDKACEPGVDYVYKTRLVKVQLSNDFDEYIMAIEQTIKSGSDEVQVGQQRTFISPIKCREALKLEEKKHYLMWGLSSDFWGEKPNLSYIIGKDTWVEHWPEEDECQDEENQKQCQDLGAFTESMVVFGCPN
Chain of 'live' C3 (C3 with an intact thiol ester bond), P01024 (P01024 whole entry, looked up): as above

Protein	kcat/KM, cleavage of C3(NH3) [1]	kcat/KM, cleavage of live C3 [2]	KM, C2 cleavage [3]	kcat, C2 cleavage [3]	kcat/KM, C2 cleavage [3]	KM, C4 cleavage [4]	kcat, C4 cleavage [4]	kcat/KM, C4 cleavage [4]	cleavage in the competing oligopeptide substrate library [5]	digestion of the P1 Arg oligopeptide at 15 min [5]	cleavage in the competing oligopeptide substrate library [6]	molar excess needed to abolish cleavage of complement substrates [7]	kobs (pseudo-first order rate of reaction at [C1-inh] = 350 nM) [8]	efficiency of digestion against the MASP-2 CCP1-CCP2-SP fragment [5]	fold lower kobs than for the MASP-2 CCP1-CCP2-SP fragment [9]
MASP-2 CCP1-CCP2-SP fragment (protein) chain 1: IHYTSTAQPCPYPMAPPNGHVSPVQAKYILKDSFSIFCETGYELLQGHLPLKSFTAVCQKDGSWDRPMPACSIVDCGPPDDLPSGRVEYITGPGVTTYKAVIQYSCEETFYTMKVNDGKYVCEADGFWTSSKGEKSLPVCEPVCGLSARTTGGR chain 2: IYGGQKAKPGDFPWQVLILGGTTAAGALLYDNWVLTAAHAVYEQKHDASALDIRMGTLKRLSPHYTQAWSEAVFIHEGYTHDAGFDNDIALIKLNNKVVINSNITPICLPRKEAESFMRTDDIGTASGWGLTQRGFLARNLMYVDIPIVDHQKCTAAYEKPPYPRGSVTANMLCAGLESGGKDSCRGDSGGALVFLDSETERWFVGGIVSWGSMNCGEAGQYGVYTKVINYIPWIENIISDF	3300 M⁻¹ s⁻¹	350 M⁻¹ s⁻¹	4 µM	1.9 s⁻¹	500000 M⁻¹ s⁻¹	1.6 µM	0.9 s⁻¹	550000 M⁻¹ s⁻¹	both enzymes cleave oligopeptides that contain either Arg or Lys at their P1 positions	MASP-2 cleaved less than 20% of the substrate	both enzymes cleave oligopeptides that contain either Arg or Lys at their P1 positions	or with a large molar excess (40 fold) of alpha-2-macroglobulin	0.0078 s⁻¹	–	–
MASP-1 CCP1-CCP2-SP fragment (protein) chain 1: ASMTGNECPELQPPVHGKIEPSQAKYFFKDQVLVSCDTGYKVLKDNVEMDTFQIECLKDGTWSNKIPTCKIVDCRAPGELEHGLITFSTRNNLTTYKSEIKYSCQEPYYKMLNNNTGIYTCSAQGVWMNKVLGRSLPTCLPVCGLPKFSRKLMAR chain 2: IFNGRPAQKGTTPWIAMLSHLNGQPFCGGSLLGSSWIVTAAHCLHQSLDPEDPTLRDSDLLSPSDFKIILGKHWRLRSDENEQHLGVKHTTLHPQYDPNTFENDVALVELLESPVLNAFVMPICLPEGPQQEGAMVIVSGWGKQFLQRFPETLMEIEIPIVDHSTCQKAYAPLKKKVTRDMICAGEKEGGKDACAGDSGGPMVTLNRERGQWYLVGTVSWGDDCGKKDRYGVYSYIHHNKDWIQRVTGVRN	6100 M⁻¹ s⁻¹	300 M⁻¹ s⁻¹	4.8 µM	0.1 s⁻¹	30000 M⁻¹ s⁻¹	2.7 µM	0.002 s⁻¹	690 M⁻¹ s⁻¹	both enzymes cleave oligopeptides that contain either Arg or Lys at their P1 positions	at 15 min MASP-1 showed almost 90% digestion	both enzymes cleave oligopeptides that contain either Arg or Lys at their P1 positions	–	0.0014 s⁻¹	the MASP-1 CCP1-CCP2-SP fragment digests the P1 Arg peptide 4-5 fold more efficiently than the corresponding fragment of MASP-2	5-fold less for the MASP-1 CCP1-CCP2-SP than for the MASP-2 CCP1-CCP2-SP fragment
